# Source: patent US20210171947A1 (PAIRWISE PLANTS SERVICES, published 2021)
# Target: 4xSH3lig::Cas12a (SEQ ID NO: 187)
# Test: cell-based or functional assay
binder,measurement,value
VirD2::SH3dom (SEQ ID NO: 186) (other) MPDRAQVIIRIVPGGGTKTLQQIINQLEYLSRKGRLELQRSARHLDIPLPPDQIHELARSWVQETGTYDESQPDEERQQELTTHIIVSFPAGTSQVAAYAASREWAAEMFGSGAGGGRYNYLTAFHIDRDHPHLHVVVNRRELLGHGWLKISRRHPQLNYDALRIKMAEISLRHGIALDASRRAERGITERPITYAQYRRLEREQARQIRFEDADLEQSSPQGDHPEFSQPFDTSPFEASAGGPEDMPRPNNRQNESQVHLQEPAGVSNEAGVLVRVALETERLAQPFVSETILADDIGSGSSRVAEGRVESANRTPDIPRAATEAATHTTHDRQRRAKRPHDDDGGPSGAKRVTLEGIAVGPQANAGEQDGSSGGSSGGSMSGSKKRRIKQDAEYVRALFDFNGNDEEDLPFKKGDILRIRDKPEEQWWNAEDSEGKRGMIPVPYVEKYSGSGGSSGGSSGPLVRQAGTSRPSPPTATTRASTATDSLSATAHLQQRRGVLSKRPREDDDGEPSERKRERDERSKDGRGGNRR,"increase of green shoots over the negative control, EF1α site",~3 fold
same,"increase of green shoots over the negative control, polyubiquitin site",~2 fold
